# Values quoted from earlier work as cited in patent US11406718B2, “Methods of detecting pancreobiliary ductal leaks” (CHIRHOCLIN, INC., priority 2012, dated 2022).
# No end group written: not given here.
Substance,"allergic reactions (human, in vivo)","dose safely given (human, in vivo) [µg/kg]","hemodynamic effects (human, in vivo)","largest dose administered in a study, found safe (human, in vivo) [µg]","risk of acute pancreatitis episodes (human, in vivo)",effect on pancreatic duct diameter (pancreas; in vivo),effect on sphincter of Oddi (pancreas; in vivo),effect on pancreatic juice (pancreas; primary action),serious adverse drug reactions (human secretin stimulation),adverse reaction seen rarely (thousands of patients in pancreobiliary function testing with human secretin)
"secretin (HSDGTFTSELSRLRDSARLQRLLQGLV; ends and bridges not checked; UniProt P63298 33-59, looked up) [3055.5 MW (27 amino acid) gastrointestinal peptide hormone originally extracted from the porcine duodenum]",No allergic reactions have been reported,0.78,No significant hemodynamic effects have been observed,160,not known to increase the risk of acute pancreatitis episodes,increases the pancreatic duct diameter,causes sphincter of Oddi relaxation,increase the volume and bicarbonate content of pancreatic juice,–,–
human secretin,–,–,–,–,–,–,–,–,There has not been any serious reported adverse drug reaction,flushing of the face with stable vital signs
